Experimental data from article PMC546129.

What was measured:
[1] = biological target: Gal4-DBD–Vnd, construct A1 (amino acids 3–717) (Drosophila) (UniProt P22808); assay: two-hybrid
[2] = biological target: Gal4-DBD–Vnd, construct A2 (amino acids 3–613) (Drosophila) (UniProt P22808); assay: two-hybrid

fold reduction of repression (two-hybrid reporter) [1]: 6 fold | fold alleviation of repression (two-hybrid reporter) [2]: 3 to 3.5 fold
Substance: VP16–Dichaete (pACT-Dichaete) (natural protein)
